Protein stability index data for 72 sequences are collected here from the supplement of paper PMC10567573.

± gives the standard deviation.

The data set can be described thus: protein stability index of a GFP-peptide fusion (GPS, HEK-293T) (PSI 1-6); higher = more stable.
[1] abbreviates: treatment: DMSO, c terminus: a fixed tail appended.
Where [2] appears, read: treatment: MLN4924 1 uM, 8 h, c terminus: a fixed tail appended.
Setting [3] is: treatment: DMSO, c terminus: native.
Setting [4] is: treatment: MLN4924 1 uM, 8 h, c terminus: native.
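Also: 24-mer peptide tiles fused after GFP, lentivirally expressed, FACS-sorted into six equal bins by GFP/DsRed ratio, decoded by Illumina sequencing, PSI is the read-weighted mean bin number.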

In the case of GGVCCTVTLNFNVPGEFKQDVTVV [GFOD1], the protein stability index is, setting by setting: under setting [1], 2.94 ± 0.25; under setting [2], 2.99 ± 0.16.
Take GIELMEVDPIGHLYIFATCLGLSY [MAGEA3]: the protein stability index by setting is: under setting [1], 2.72 ± 0.9; under setting [2], 2.85 ± 1.2.
Taken in the same sequence, the figures for RSKIYLRFLDYEMQNSNECKRNFV [NETO1] were 2.1 ± 0.2 and 2.28 ± 0.091.
Taken in the same sequence, the figures for GKVLGKGGFAKCYEMTDLTNNKVY [PLK2] were 2.73 ± 0.11 and 2.87 ± 0.34.
Take IEREVNILREIRHPNIITLHDIFE [DAPK3]: the protein stability index reads like this: under setting [1], 2.69 ± 0.17; under setting [2], 2.71 ± 0.42.
Taken in the same sequence, the figures for SEIKNLERYMCSRFFIDFPHIEEQ [TENT5D] were 2.42 ± 0.15 and 2.22 ± 0.35.
Taken in the same sequence, the figures for CDKHSKLFEEPEDPSNRSFFSEII [PPP2R2C] were 3.36 ± 0.17 and 3.57 ± 0.2.
Taken in the same sequence, the figures for SFGWSDRAKVKTDDIARIYQPKRY [FAM98B] were 2.9 ± 0.38 and 2.99 ± 0.54.
On to ILLLDGAAWLTLWVFGTSFLPFLL [FADS1], for which the protein stability index amounted to 2.91 ± 0.062 under setting [1] and 3.17 ± 0.46 under setting [2].
Turning to RQERVSLYPFQIHSIALSTFASLI [CDS1], the protein stability index is, setting by setting: under setting [1], 3.04 ± 0.61; under setting [2], 2.92 ± 0.49.
Taken in the same sequence, the figures for RTTKPMAQRSAHCSRPSGSSSSSG [CSNK1G1] were 4.39 ± 0.18 and 4.43 ± 0.2.
KKAEQKKKEKIIEDKTFGLKNKKG [ZC3H15]: the protein stability index came to 4.8 ± 0.31 under setting [1] and 4.92 ± 0.1 under setting [2].
Taken in the same sequence, the figures for PHEDHVFLVANFSQIETLTSVFQK [MATN2] were 2.25 ± 0.24 and 2.35 ± 0.16.
Taken in the same sequence, the figures for APAQRATRGFLRSPSSDLDTDAEG [RETREG3] were 5.44 ± 0.13 and 5.14 ± 0.18.
Taken in the same sequence, the figures for SLGKARTAQVQKDARIGEAEAKRD [FLOT1] were 5.31 ± 0.21 and 5.12 ± 0.36.
For the sequence AQSGERECHIVVLTDDDVVDWDEE [BTBD10], the protein stability index turned out to be 5.205 ± 0.041 under setting [1] and 5.14 ± 0.28 under setting [2].
On to LPAGPGEEWERRPQEPRPPKRATK [CPXM2], for which the protein stability index reads like this: under setting [1], 5.04 ± 0.53; under setting [2], 5.44 ± 0.28.
Taken in the same sequence, the figures for RLQQLRRLRGLLRVLRGRPGAGSR [FBXO33] were 2.36 ± 0.21 and 2.66 ± 0.62.
Taken in the same sequence, the figures for EAFTLMDQNRDGFIDKEDLKDTYA [MYL5] were 4.69 ± 0.25 and 4.88 ± 0.11.
As for DISETFNHANGLTLVSRAHQLVME [PPP2CA], the protein stability index is, setting by setting: under setting [1], 2.79 ± 0.12; under setting [2], 2.82 ± 0.29.
Taken in the same sequence, the figures for GLVPSEKPPMMPQAQPAIPRPNRL [C2CD2L] were 4.65 ± 0.21 and 4.47 ± 0.068.
Taken in the same sequence, the figures for ASHQQQVLPPRQPSALVPSVTEYR [MYBL2] were 4.38 ± 0.28 and 4.37 ± 0.15.
With MKTFVSPEAISPDLVKKIRDFHRK [TRIM15], the protein stability index under setting [1] worked out at 3.17 ± 0.13 and the protein stability index under setting [2] was 3.07 ± 0.16.
Taken in the same sequence, the figures for EYVEKETQEKKRLSRTNEELLWKL [MTUS2] were 4.04 ± 0.25 and 4.17 ± 0.22.
Taken in the same sequence, the figures for SSHKQGHTSSEYDMLREMFSDSRS [TAF7L] were 4.11 ± 0.21 and 4.13 ± 0.26.
In the case of RRASICCTQLGSLSALKHAVLGLY [SCARA5], the protein stability index was determined as 2.44 ± 0.38 under setting [1] and 2.07 ± 0.28 under setting [2].
Taken in the same sequence, the figures for DEQAPQRQRLLADLLHNVSQNIAA [DFFB] were 3.72 ± 0.16 and 3.58 ± 0.31.
Taken in the same sequence, the figures for CYVSRRLSQLSSHDPLWRRHCKKY [FBXO3] were 2.32 ± 0.12 and 2.4 ± 0.23.
Taken in the same sequence, the figures for RAVRDRNLLRDDRVLQNLLTIEER [CCND2] were 3.91 ± 0.21 and 3.89 ± 0.17.
Take RLATVHMSRMINKYKRRRFQKTKN [CLPTM1]: the protein stability index is 3.16 ± 0.36 under setting [1] and 3.54 ± 0.49 under setting [2].
Taken in the same sequence, the figures for NPNGGSFEEVLSSTAHASAQSLAG [TPD52L1] were 4.76 ± 0.12 and 4.9 ± 0.11.
Taken in the same sequence, the figures for KGAILTTMLATRNFSAAKSLLNKK [CAMK2B] were 2.91 ± 0.18 and 3.04 ± 0.24.
GFYFEVCGMMVESVNAKTLMSRI [PCDHGA10]: the protein stability index was 2.81 ± 0.26 under setting [3] and 2.41 ± 1 under setting [4].
Turning to GAGLLSSISELKHALSGHAKVKPF [TPH1], the protein stability index came to 2.86 ± 0.095 under setting [1] and 3.02 ± 0.12 under setting [2].
Taken in the same sequence, the figures for EKPYGCIDCGKAFSQKSCLVAHQR [ZNF649] were 2.81 ± 0.07 and 2.99 ± 0.28.
As for RNTKRDVTLEASRENSKPRAILKP [PPP2R2B], the protein stability index runs as follows: under setting [1], 4.44 ± 0.47; under setting [2], 4.79 ± 0.056.
Taken in the same sequence, the figures for AEPGALGEPGAAAPAMYDDESAID [CEBPD] were 5.6 ± 0.57 and 5.77 ± 0.21.
Turning to PAFRFLTKMWHPNIYETGDVCISI [CDC34], the protein stability index turned out to be 3.2 ± 0.42 under setting [1] and 3.04 ± 0.59 under setting [2].
Turning to SAVLFYVNMYVSIVFFGLISFDRY [P2RY14], the protein stability index is, setting by setting: under setting [1], 3.04 ± 0.35; under setting [2], 3.22 ± 0.36.
Taken in the same sequence, the figures for ISHQGDYAVLAAEPELQVGIDIMK [AASDHPPT] were 3.42 ± 0.21 and 3.52 ± 0.3.
In the case of MDLLTQSLGVDTLPPPDPNPPRAE [APBB1IP], the protein stability index under setting [1] came to 4.85 ± 0.2 and the protein stability index under setting [2] amounted to 4.87 ± 0.14.
Taken in the same sequence, the figures for CPVPAHRRGSWRLPYTDGLSWELL [CTBP1-DT] were 2.49 ± 0.34 and 2.59 ± 0.31.
Taken in the same sequence, the figures for AHSSSNTIRSGISPNLNVVDGRLT [SASS6] were 4.16 ± 0.28 and 4.31 ± 0.12.
Taken in the same sequence, the figures for ISNGDFESYTKMCDPGMTAFEPEA [CAMK2A] were 4.48 ± 0.18 and 4.66 ± 0.25.
With GSDLGGPLPTDPMLGLALGGLVVS [TSPAN10], the protein stability index turned out to be 2.88 ± 0.2 under setting [1] and 2.66 ± 0.19 under setting [2].
Turning to TQGLPWRFEELLTCSHWPSFFPS [TEX19], the protein stability index worked out at 2.78 ± 0.46 under setting [3] and 2.24 ± 0.87 under setting [4].
On to DYLPLTALVDGQIFCLHGGLSPSI [PPP2CA], for which the protein stability index came to 2.58 ± 0.93 under setting [1] and 2.21 ± 0.41 under setting [2].
Taken in the same sequence, the figures for TGEASENGLEDIDRILERIEDSTG [TCF25] were 5.47 ± 0.074 and 5.46 ± 0.29.
Taken in the same sequence, the figures for LPDNFTLKEDGMETVPWFPKKISD [TPH1] were 4.4 ± 0.19 and 4.3 ± 0.12.
Taken in the same sequence, the figures for LHPPVDDPQSGELPSERWNPTQNV [CDC34] were 5.02 ± 0.36 and 5.04 ± 0.32.
For VWNMTATRPKKMGSQLPKPRMLRE [FATE1], the protein stability index worked out at 2.94 ± 0.24 under setting [1] and 3 ± 0.12 under setting [2].
As to AKGGSRLCTPEGWFSCQGPFDMDS [DFFB], the protein stability index is, setting by setting: under setting [1], 3.01 ± 0.3; under setting [2], 3.1 ± 0.27.
Taken in the same sequence, the figures for MLHHHCRRNPELQEELQIQAAVAA [ASB7] were 3.47 ± 0.29 and 3.59 ± 0.26.
The sequence KRYDGLKYDVKKVEEVVYDLSIRG [TSN] returned a protein stability index under setting [1] of 3.33 ± 0.27 and a protein stability index under setting [2] of 3.29 ± 0.094.
Taken in the same sequence, the figures for HSRKTVLIKTIETRNGEVVTESQK [PRPH] were 4.71 ± 0.27 and 4.8 ± 0.32.
Taken in the same sequence, the figures for YGTQRTLILESQNWRYATGGWETV [FUT8] were 2.1 ± 0.13 and 2.16 ± 0.14.
Taken in the same sequence, the figures for EDSVSRLEKEIEVLERGDSAPATA [PALM] were 5.49 ± 0.23 and 5.47 ± 0.18.
SVDDIESETGSTGALETRSLKDHK [C2CD2L]: the protein stability index was 5.52 ± 0.3 under setting [1] and 5.43 ± 0.27 under setting [2].
Taken in the same sequence, the figures for KLEERFMTLAANHELMLRFKDEYK [CCDC89] were 2.99 ± 0.28 and 2.99 ± 0.43.
Taken in the same sequence, the figures for QTPQVNINPFTPDSLLLHSSGQCR [WEE1] were 3.6 ± 0.24 and 3.86 ± 0.34.
Taken in the same sequence, the figures for WDPSVQSCKEGLSPRGPAPGEEKF [ZNF263] were 5.43 ± 0.1 and 5.46 ± 0.092.
In the case of ENPETDLHVNPKKQTIGNSCKACG [EIF5], the protein stability index reads like this: under setting [1], 4.44 ± 0.39; under setting [2], 4.66 ± 1.2.
Taken in the same sequence, the figures for PRQVSYTPQHHEKQYAMQRPNDDS [IQUB] were 4.78 ± 0.22 and 4.77 ± 0.12.
Taken in the same sequence, the figures for KPPQNPVDTYDVQVTAPGAPPLQA [TNXB] were 4.84 ± 0.35 and 4.46 ± 0.3.
Taken in the same sequence, the figures for DYSPYFKTIEDLRNKIIAATIENA [KRT16] were 2.33 ± 0.22 and 2.44 ± 0.42.
Consider TGLELIAEESNPPLQDFPNSISSD [MIA2], for which the protein stability index came to 5.2 ± 0.097 under setting [1] and 5.33 ± 0.25 under setting [2].
Taken in the same sequence, the figures for LQIDNARLAADDFRTKFETEQALR [KRT17] were 4.03 ± 0.24 and 4.27 ± 0.3.
In turn, FLQQSLERVYSLQHLDPQGAQELL [INTS4] yielded a protein stability index under setting [1] of 1.91 ± 0.42 and a protein stability index under setting [2] of 2.76 ± 0.54.
Taken in the same sequence, the figures for ASTVLKSVGFQSNEAASLASTGVG [SLC2A12] were 4.16 ± 0.3 and 4.15 ± 0.35.
Taken in the same sequence, the figures for QVLVKDFTFEGFSRLRFLNLGRMI [ZER1] were 2.07 ± 0.22 and 2.08 ± 0.23.
With VEIVKSDFHKPFLGGFRHKVTGVE [IQUB], the protein stability index reads like this: under setting [1], 2.17 ± 0.23; under setting [2], 2.5 ± 0.39.
Taken in the same sequence, the figures for KAVKDLVVLLFETALLSSGFSLED [HSP90AB1] were 2.92 ± 0.17 and 2.88 ± 0.16.
